Measurements reported in US12359240B2, “Membrane protease-based methods for detection of bacteria” (Nanyang Technological University, priority 2019, dated 2025).
Where no end group is shown, it is not given here.

Experiments:
OmpT and PgtE = experiment: Substrate preference of OmpT versus PgtE, change in PT6 fluorescence with time; type: biochemical, E. coli K-12; Salmonella typhi; settings: FIG. 15
E. coli K12 = experiment: Detection of E. coli in contaminated water with the LL37 peptides and PT6; type: cell-based, Escherichia coli; settings: 10^8 CFU/mL E. coli K12, FIG. 14A
OmpT [1] = molecular target: T1, OmpT (Escherichia coli, UniProt P09169); settings: for rate of reduction in PT6 fluorescence (cleavage by OmpT) relative to the peptide of Examples 1-5: interpreted from the slope
OmpT [2] = molecular target: T1, OmpT
Method: This OmpT was obtained by overexpressing the protein in E. coli BL21 as inclusion bodies using a protocol reported earlier [Kramer, R. A. Zandwijken, D. Egmond, M. R. Dekker, N. Eur. J. Biochem. 267, 885-893 (2000)]. Briefly, the inclusion bodies were unfolded and solubilized using 8 M urea and subsequently refolded in the presence of DodMe2NPrSO3, a zwitterionic detergent. The refolded OmpT was purified and stored at 4° C. for further use. […] To this 100 μL reaction mixture, 10 μL of PTAA stock solution (0.1 mg/mL) was added. Fluorescence measurements and absorbance scans were collected as mentioned before. The raw fluorescence (F.) intensity scans are either plotted as is or reported as % fluorescence increase. The following formula was applied to convert fluorescence intensity (a.u.) to % fluorescence increase: […]

OmpT [3] = molecular target: T1, OmpT; remark: listed apart in the source
[4] = PT6-peptide fluorescence measurements (no enzyme); settings: FIG. 18
Method: Stock solutions of PT6 was prepared in a reaction buffer such that the absorbance at λmax was ˜1.4. All absorbance and fluorescence measurements were carried out on 100 μL samples in a flat bottom 96 well plate using a TECAN Infinite® 200 PRO (Switzerland). Fluorescence scans were collected by exciting the samples at 495 nm, further recording their emission spectrum from 525-750 nm. […] In order to study the effect of cysteine on PT6 fluorescence, different concentrations (150-6.25 μM) of the two peptides (Table 12) were prepared from the stock and mixed with PT6 such that the final concentration of the PT is a 10 time dilution of the stock. The fluorescence intensities were measured as described above.

[5] = PTAA-peptide fluorescence and optical absorption measurements (no enzyme); settings: 550 nm; peptide's highest concentration
Method: All PTAA and LL37FRRY mixing were carried out in the reaction buffer. All optical absorption and fluorescence measurements were carried out on 100 μL samples in a flat bottom 96 well plate using a TECAN Infinite® 200 PRO(Switzerland). Optical absorption measurements were collected from 330-650 nm. […] To understand the effect of intact and cleaved fragments on the fluorescence intensity and optical absorption of PTAA, LL37FRRV, frag1LL37FRRV (SEQ ID NO: 47) and frag2LL37FRRV (SEQ ID NO: 48) were added in different ratios (10:0, 8:2, 6:4, 4:6, 2:8, 0:10) while keeping the total peptide concentration at 50 μM. The fluorescence intensity and optical absorption spectra were measured as mentioned before.

OmpT [6] = molecular target: T1, OmpT; settings: 20 μM peptide, OmpT 6 hours, FIG. 17

T1 sequence (P09169 21-317): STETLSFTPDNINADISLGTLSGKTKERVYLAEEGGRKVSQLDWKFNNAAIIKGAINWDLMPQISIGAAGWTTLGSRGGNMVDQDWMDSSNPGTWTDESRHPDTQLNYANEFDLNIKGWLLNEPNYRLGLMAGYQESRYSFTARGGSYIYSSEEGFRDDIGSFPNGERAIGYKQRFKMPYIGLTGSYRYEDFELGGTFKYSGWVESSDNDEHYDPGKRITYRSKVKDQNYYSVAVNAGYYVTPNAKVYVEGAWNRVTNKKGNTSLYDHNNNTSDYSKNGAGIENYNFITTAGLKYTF

C L L G D F A R R A K E K I G (CLLGDFARRAKEKIG; LL37ARRA)
substrate preference of OmpT compared with PgtE (OmpT and PgtE): OmpT exhibits a higher preference

C L L G D F F R R A K E K I G (CLLGDFFRRAKEKIG; LL37FRRA)
rate of reduction in PT6 fluorescence (E. coli K12): faster rate | rate of reduction in PT6 fluorescence (cleavage by OmpT) relative to the peptide of Examples 1-5 (OmpT [1]): faster rate

C L L G D F F R R V K E K I G (CLLGDFFRRVKEKIG; LL37FRRV)
increase in PTAA fluorescence intensity when mixed with OmpT-cleaved peptide fragments (OmpT [2]; peptide treated with OmpT in detergent micelles): no more than 20% | times better then original peptide (substrate specific for OmpT) (OmpT [3]; SAMDI-MS peptide array, versus original peptide): 400 times

C L L G D F F R R Y K E K I G (CLLGDFFRRYKEKIG; LL37FRRY)
PT6 fluorescence intensity, peptide with versus without terminal cysteine [4]: much higher fluorescence intensity | rate of reduction in PT6 fluorescence (E. coli K12): faster rate | PTAA's fluorescence intensity less than with peptide in the absence of OmpT (OmpT [2]; 42 nM OmpT, 2 hours, 50 μM peptide): ~175% | overall increase in PTAA's fluorescence intensity upon peptide addition [5]: ~200% | incubation time with OmpT of the sample showing colour change from bronze to purple (OmpT [1]; PT6, normal visible light, FIG. 13B top): 70 min | rate of reduction in PT6 fluorescence (cleavage by OmpT) relative to the peptide of Examples 1-5 (OmpT [1]): faster rate | difference in PTAA fluorescence intensity between intact peptide and peptide digested with OmpT (OmpT [6]): largest difference

C L L G D F Y R R A K E K I G (CLLGDFYRRAKEKIG; LL37YRRA)
rate of reduction in PT6 fluorescence (E. coli K12): faster rate | rate of reduction in PT6 fluorescence (cleavage by OmpT) relative to the peptide of Examples 1-5 (OmpT [1]): faster rate

FRRV: library peptide of type AcGX1RRX2GC carrying the tetrapeptide sequence FRRV at the cleavage site (Ac-GFRRVGC)
cleavage by OmpT of library peptide AcGX1RRX2GC (OmpT [3]; tetrapeptide sequence at the cleavage site): efficiently cleaved
